Results from US20140296501.
Where two headings read alike, the source gives them in different places.

Target: EGFR (ERBB1) (UniProt P00533)

## CCACGCTGGGTGGGTCATCGAGGTTGTGGGTCGGATTGTTGGATTCTTTAAGTTGGGAACACCAACCGAGAACG [EGFR aptamer SEQ ID NO: 4]
N = BndU (5-benzylaminocarbonyl-2'-deoxyuridine), text prints natural T in the 5' region CCACGCTGGGTGGGTC while listing shows n there [n positions 7,11,15,18,24,25,27,31,36,37,39,40,44,45,47,48,49,53,54 = modified dU]
  Kd: 123 pM

## ATCGAGGTTGTGGGTCGGATTGTTGGATTCTTTAAGTTGGGAACACCAAC [EGFR aptamer SEQ ID NO: 5 (50-mer truncate)]
N = BndU [n positions 2,8,9,11,15,20,21,23,24,28,29,31,32,33,37,38 = modified dU]
  Kd: 526 pM
